Experimental data taken from US20090004190A1, “Rage Fusion Proteins And Methods Of Use” (priority 2006, published 2009).

Biological target: Fc receptor on THP-1 cells
Test: cell-based or functional assay

TNF secreted by THP-1 cells in wells coated with 10 µg/well heat aggregated protein (ELISA, 24 h): > 40 ng/well
Substance: human IgG1 (heat aggregated, coated on wells) (antibody)
